In patent EP4786492A1 (Simcere Zaiming Pharmaceutical Co., Ltd., dated 2026):
Substitutions are numbered along the chain they refer to.

T1: monkey DLL3 on CHO K1-cyno DLL3 cells (cynomolgus monkey)
T1 construct: also called monkey DLL3 recombinant cell line
T1 chain: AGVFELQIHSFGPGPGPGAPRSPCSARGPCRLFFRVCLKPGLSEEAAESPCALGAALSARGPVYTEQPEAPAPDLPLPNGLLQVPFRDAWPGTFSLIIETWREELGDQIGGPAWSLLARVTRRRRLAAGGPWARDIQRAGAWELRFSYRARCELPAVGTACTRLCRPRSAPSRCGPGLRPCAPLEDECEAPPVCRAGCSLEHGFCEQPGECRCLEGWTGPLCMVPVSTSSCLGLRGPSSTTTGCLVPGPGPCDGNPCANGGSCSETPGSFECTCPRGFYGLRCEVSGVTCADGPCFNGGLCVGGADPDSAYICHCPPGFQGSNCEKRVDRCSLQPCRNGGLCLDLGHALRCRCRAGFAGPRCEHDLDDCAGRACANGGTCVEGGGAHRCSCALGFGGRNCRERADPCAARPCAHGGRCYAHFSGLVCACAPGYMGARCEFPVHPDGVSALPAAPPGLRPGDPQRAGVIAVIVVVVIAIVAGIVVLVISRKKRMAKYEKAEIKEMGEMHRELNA

T2: mouse DLL3 on CHO K1-mDLL3 cells (mouse, UniProt O88516 33-490)
T2 construct: also called mouse DLL3 recombinant cell line
T2 sequence: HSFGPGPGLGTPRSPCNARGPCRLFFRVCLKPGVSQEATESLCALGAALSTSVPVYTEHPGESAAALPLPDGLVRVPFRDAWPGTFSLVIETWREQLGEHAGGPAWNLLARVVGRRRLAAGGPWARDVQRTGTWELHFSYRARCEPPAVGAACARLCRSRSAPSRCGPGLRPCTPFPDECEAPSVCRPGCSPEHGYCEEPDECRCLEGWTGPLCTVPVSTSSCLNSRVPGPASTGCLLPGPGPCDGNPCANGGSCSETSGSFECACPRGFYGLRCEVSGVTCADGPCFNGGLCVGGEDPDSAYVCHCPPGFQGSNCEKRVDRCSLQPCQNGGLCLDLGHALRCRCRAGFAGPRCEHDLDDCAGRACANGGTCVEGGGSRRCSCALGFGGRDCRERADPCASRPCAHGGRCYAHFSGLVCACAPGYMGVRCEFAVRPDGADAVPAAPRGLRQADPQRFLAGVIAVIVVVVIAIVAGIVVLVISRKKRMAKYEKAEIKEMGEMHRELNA

T3: human DLL3 on CHO-K1 hDLL3 cells (human, UniProt Q9NYJ7 27-492)
T3 construct: also called human DLL3 recombinant cell line
T3 sequence: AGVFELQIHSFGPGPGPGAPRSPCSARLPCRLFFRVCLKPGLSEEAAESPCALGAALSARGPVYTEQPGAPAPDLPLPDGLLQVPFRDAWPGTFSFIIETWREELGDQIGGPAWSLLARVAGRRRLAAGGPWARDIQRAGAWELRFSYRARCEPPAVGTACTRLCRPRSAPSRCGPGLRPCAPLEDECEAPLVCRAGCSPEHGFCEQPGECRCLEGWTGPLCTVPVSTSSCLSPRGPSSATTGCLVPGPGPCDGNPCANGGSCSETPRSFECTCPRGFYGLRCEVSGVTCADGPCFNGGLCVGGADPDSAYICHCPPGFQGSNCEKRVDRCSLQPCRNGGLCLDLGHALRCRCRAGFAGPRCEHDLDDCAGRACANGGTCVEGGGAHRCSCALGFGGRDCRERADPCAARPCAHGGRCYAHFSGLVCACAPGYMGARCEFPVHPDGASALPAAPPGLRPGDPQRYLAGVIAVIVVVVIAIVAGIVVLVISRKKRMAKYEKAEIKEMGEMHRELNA

T4: human DLL3 endogenously expressed on SHP77 and NCI-H82 cells (human, UniProt Q9NYJ7 27-618)
T4 construct: whole, on cells; cells endogenously expressing DLL3; also called SHP77 cells; SHP-77 cells
T4 sequence (looked up): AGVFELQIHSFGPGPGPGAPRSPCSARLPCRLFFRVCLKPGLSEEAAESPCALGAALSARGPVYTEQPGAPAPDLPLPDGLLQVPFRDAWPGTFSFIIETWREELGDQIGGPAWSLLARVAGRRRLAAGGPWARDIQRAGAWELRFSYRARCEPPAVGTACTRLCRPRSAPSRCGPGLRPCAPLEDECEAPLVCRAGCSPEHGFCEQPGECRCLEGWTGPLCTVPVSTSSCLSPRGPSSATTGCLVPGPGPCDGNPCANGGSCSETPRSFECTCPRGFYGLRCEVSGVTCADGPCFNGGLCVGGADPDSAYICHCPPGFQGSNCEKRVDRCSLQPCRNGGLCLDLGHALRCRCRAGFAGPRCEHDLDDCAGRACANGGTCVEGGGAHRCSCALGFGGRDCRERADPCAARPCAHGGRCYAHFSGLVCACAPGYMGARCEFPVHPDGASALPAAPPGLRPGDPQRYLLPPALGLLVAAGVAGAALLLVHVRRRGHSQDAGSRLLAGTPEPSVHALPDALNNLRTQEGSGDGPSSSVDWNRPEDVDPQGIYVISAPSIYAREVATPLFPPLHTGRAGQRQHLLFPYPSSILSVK

T5: human DLL3-his protein (human, UniProt Q9NYJ7 27-492)
T5 construct: also called human DLL3 protein; DLL3 antigen protein; not shown: His tag
T5 sequence: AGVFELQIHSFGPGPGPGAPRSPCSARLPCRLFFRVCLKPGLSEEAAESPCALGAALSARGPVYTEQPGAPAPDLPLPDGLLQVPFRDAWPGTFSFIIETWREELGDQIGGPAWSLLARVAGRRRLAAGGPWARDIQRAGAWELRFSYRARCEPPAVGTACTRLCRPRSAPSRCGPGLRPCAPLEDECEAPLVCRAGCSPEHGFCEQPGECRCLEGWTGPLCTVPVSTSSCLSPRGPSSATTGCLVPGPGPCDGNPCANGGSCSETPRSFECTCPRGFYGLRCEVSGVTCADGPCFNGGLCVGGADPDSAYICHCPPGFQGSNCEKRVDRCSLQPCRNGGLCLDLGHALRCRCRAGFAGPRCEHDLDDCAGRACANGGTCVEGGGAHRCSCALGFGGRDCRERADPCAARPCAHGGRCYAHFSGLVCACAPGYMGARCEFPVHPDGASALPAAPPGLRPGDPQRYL

B1: Hab014VL1VH2-hFc (Fc fusion)
scFv (part 1 of 2): DIQMTQSPSSLSASVGDRVTITCKASEDIYNRLAWYQQKPGKVPKLLISGATSLETGVPSRFSGSGSGTDFTLTISSLQPEDVATYYCQQYWSLPWTFGGGTKVEIK
scFv (part 2 of 2): EVQLVQSGAEVKKPGASVKVSCKASGYTFTDYYMNWVRQAPGQRLEWMGDINPNHGDTGYNQKFTGRVTLTVDKSASTAYMELSSLRSEDTAVYYCARNFFYYGTTYGWYFDVWGQGTTVTVSS
notes: humanized mab014, VL-linker-VH-human IgG1 Fc; not shown: linker; human IgG1 Fc fragment
B2: Hab014VL3VH1-hFc (Fc fusion)
scFv (part 1 of 2): DIVMTQSPDSLAVSLGERATINCKASEDIYNRLAWYQQKPGQTPKLLISGATSLETGVPDRFSGSGSGKDFTLTISSLQAEDVAVYYCQQYWSLPWTFGGGTKVEIK
scFv (part 2 of 2): B1 scFv (part 2 of 2) with L70I
notes: as for B1
B3: Hab014VL2VH1-hFc (Fc fusion)
scFv (part 1 of 2): B1 scFv (part 1 of 2) with T69K
scFv (part 2 of 2): B1 scFv (part 2 of 2) with L70I
notes: as for B1
B4: Hab009VL1aVH1-hFc (Fc fusion)
scFv (part 1 of 2): DIVMTQSPLSLPVTPGEPASISCRASQTISDYLHWYLQKPGQSPQLLIKYASQSISGVPDRFSGSGSGSDFTLKISRVEAEDVGVYYCQQGHSFPLTFGQGTKLEIK
scFv (part 2 of 2): EVQLVQSGAEVKKPGASVKVSCKASGYTFTSYWMHWVRQAPGQRLEWMGTIYPGNSDTRYNQKFKDRVTITADTSASTAYMELSSLRSEDTAVYYCTRSYDYGDLDYWGQGTTVTVSS
notes: humanized mab009, VL-linker-VH-human IgG1 Fc; not shown: linker; human IgG1 Fc fragment
B5: Hab009VL3aVH1-hFc (Fc fusion)
scFv (part 1 of 2): B4 scFv (part 1 of 2) with P40S, G41H, S69T
scFv (part 2 of 2): B4 scFv (part 2 of 2)
notes: as for B4
B6: Hab009VL2aVH1-hFc (Fc fusion)
scFv (part 1 of 2): B4 scFv (part 1 of 2) with Q45R, S69T
scFv (part 2 of 2): B4 scFv (part 2 of 2)
notes: as for B4
B7: Hab015VL4VH1a-hFc (Fc fusion)
scFv (part 1 of 2): NIVLTQSPATLSLSPGERATLSCKASENVGTYVSWFQQKPGQSPRLLIYGASNRYTGIPARFSGSGSGTDFTLTISSLEPEDFAVYYCGQFYSFPSTFGGGTKVEIK
scFv (part 2 of 2): EVQLVESGGGLVKPGGSLRLSCAASGITFSNFWMNWVRQAPGKGLEWVGQIRLKSDDYATHYAESVKGRFTISREDSKNTVYLQMNSLKTEDTAVYYCTTGYYFDYWGQGTTVTVSS
notes: humanized mab015, VL-linker-VH-human IgG1 Fc; also called Hab015L4H1a; not shown: linker; human IgG1 Fc fragment
B8: Hab015VL4VH1b-hFc (Fc fusion)
scFv (part 1 of 2): B7 scFv (part 1 of 2)
scFv (part 2 of 2): B7 scFv (part 2 of 2) with D56E
notes: humanized mab015, VL-linker-VH-human IgG1 Fc; also called Hab015L4H1b; not shown: linker; human IgG1 Fc fragment
B9: Hab006VL1VH4-hFc (Fc fusion)
scFv (part 1 of 2): DIQMTQSPSSLSASVGDRVTITCRATKSISKYLAWYQQKPGKAPKLLIFSGSTLQSGVPSRFSGSGSGTDFTLTISSLQPEDFATYYCQQHHEYPYTFGGGTKVEIK
scFv (part 2 of 2): EVQLVQSGAEVKKPGASVKVSCKASGYTFTSYWMHWVRQAPGQRLEWMGVIDPSDSLANYNQEFKGRVTLTVDTSSSTAYMELSSLRSEDTAVYYCARDSTVVAPMDYWGQGTTVTVSS
notes: humanized mab006, VL-linker-VH-human IgG1 Fc; also called Hab006VL1VL4-hFc; not shown: linker; human IgG1 Fc fragment
B10: Hab006VL4VH1-hFc (Fc fusion)
scFv (part 1 of 2): DIVMTQSPDSLAVSLGERATINCRATKSISKYLAWYQQKPGQTNKLLIFSGSTLQSGVPDRFSGSGSGTDFTLTISSLQAEDVAVYYCQQHHEYPYTFGGGTKVEIK
scFv (part 2 of 2): B9 scFv (part 2 of 2) with L70I, S76A
notes: humanized mab006, VL-linker-VH-human IgG1 Fc; also called Hab006VL4VL1-hFc; not shown: linker; human IgG1 Fc fragment
B11: Hab006VL4VH2-hFc (Fc fusion)
scFv (part 1 of 2): B10 scFv (part 1 of 2)
scFv (part 2 of 2): B9 scFv (part 2 of 2) with S76A
notes: humanized mab006, VL-linker-VH-human IgG1 Fc; also called Hab006VL4VL2-hFc; not shown: linker; human IgG1 Fc fragment
B12: Hab013VL2VH2a-hFc (Fc fusion)
scFv (part 1 of 2): EIVLTQSPATLSLSPGERATLSCRASKSVSTSGFSYMHWYQQKPGQPPRLLIYLASNLESGIPARFSGSGSGTDFTLTISSLEPEDFAVYYCQHSRELPFTFGQGTKLEIK
scFv (part 2 of 2): EVQLVQSGAEVKKPGSSVKVSCKASGYAFSNYWINWVRQAPGQGLEWMGQINPGDGDTIYNSKFKGRVTITADKSTSTAYMELSSLRSEDTAVYYCEREGRNYGDFAYWGQGTTVTVSS
notes: humanized mab013, VL-linker-VH-human IgG1 Fc; not shown: linker; human IgG1 Fc fragment

Target: T1, monkey DLL3 on CHO K1-cyno DLL3 cells
Assay: FACS, CHO K1-cyno DLL3 cells

binding result | Binder
binds | B1
binds | B2
binds | B3
binds | B4
binds | B5
binds | B6
binds | B7
binds | B8
binds | B9
binds | B10
binds | B11

target: T2, mouse DLL3 on CHO K1-mDLL3 cells; assay: FACS, CHO K1-mDLL3 cells

binding result | Binder
binds | B1
binds | B2
binds | B3
binds | B4
binds | B5
binds | B6
binds | B7
binds | B8
binds | B9
binds | B10
binds | B11
binds | B12

target: T3, human DLL3 on CHO-K1 hDLL3 cells; assay: FACS, CHO-K1 hDLL3 cells

binding result | Binder
binds | B1
binds | B2
binds | B3
binds | B4
binds | B5
binds | B6
binds | B7
binds | B8
binds | B9
binds | B10
binds | B11
binds | B12

target: T4, human DLL3 endogenously expressed on …; assay: FACS, SHP77 and NCI-H82 cells

binding result | Binder
binds | B1
binds | B2
binds | B3
binds | B4
binds | B5
binds | B6
binds | B7
binds | B8
binds | B9
binds | B10
binds | B11
binds | B12

target: T5, human DLL3-his protein; assay: ELISA

binding result | Binder
binds | B1
binds | B2
binds | B3
binds | B4
binds | B5
binds | B6
binds | B7
binds | B8
binds | B9
binds | B10
binds | B11
binds | B12
